Data from PMC3530388 (Journal of the American Chemical Society, 2012).

Biological target: the molecule itself
Assay: AUC

B1: dihydroneopterin aldolase from Mycobacterium tuberculosis H37Rv (enzyme)
chain: MADRIELRGLTVHGRHGVYDHERVAGQRFVIDVTVWIDLAEAANSDDLADTYDYVRLASRAAEIVAGPPRKLIETVGAEIADHVMDDQRVHAVEVAVHKPQAPIPQTFDDVAVVIRRSRRGGRGWVVPAGGAV
stoichiometry N: 4
